Results as given in article doi:10.1101/2020.10.04.325654 (bioRxiv, 2020).

Columns and labels:
[1] = molecular target: T1, GST-SdhA-CBM2 (Legionella pneumophila, UniProt Q6RCQ3 1029-1260); assay: pull-down
[2] = molecular target: T1, GST-SdhA-CBM2; assay: ELISA

B1: 6xHis-OCRL (enzyme)
chain: not shown
binding result [1]: binds

B2: His-tagged ASH/RhoGAP domain of OCRL (536aa-901aa) (domain or fragment)
chain: not shown
binding result [2]: binds
